# Biological target: human TREM2 on cells (human) (UniProt Q9NZC2)
# Experiment: cell-based or functional assay
# human TREM2 on cells (human), sequence (Q9NZC2 19-230): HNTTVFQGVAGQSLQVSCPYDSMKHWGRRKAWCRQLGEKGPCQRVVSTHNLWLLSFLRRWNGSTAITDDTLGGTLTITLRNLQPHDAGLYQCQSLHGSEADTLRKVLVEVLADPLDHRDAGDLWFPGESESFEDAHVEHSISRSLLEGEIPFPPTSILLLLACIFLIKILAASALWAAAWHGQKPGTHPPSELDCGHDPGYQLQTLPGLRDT
substance,measurement,value
"rat anti-human/mouse TREM2 antibody mAb17291 (Rat IgG2b Clone #237920, R&D Systems)",Emax (% maximum activation compared to RnD antibody),100%
same,"pSyk EC50, HEK293T human TREM2/DAP12",0.5 nM
same,"pSyk EC50, differentiated THP-1 cells",0.383 nM
same,"pSyk Emax, HEK293T human TREM2/DAP12",13.8
